# Experimental data: US20190024103
# Columns and labels:
# Assay in all cases: cell_activity
# Settings in all cases: TALEN pair
# [1] = test system: GmFAD3_T02 TALEN left monomer (synthetic)
# [2] = test system: GmFAD3_T03 TALEN right monomer (synthetic)
# [3] = test system: GmFAD3_T03 TALEN left monomer (synthetic)
# [4] = test system: GmFAD3_T02 TALEN right monomer (synthetic)
# [5] = test system: GmFAD3_T01 TALEN left monomer (synthetic)
# [6] = test system: GmFAD3_T01 TALEN right monomer (synthetic)
# [7] = soybean protoplasts, text p95 gives 2.39
sequence,measurement,setting,value
CTGAATAGCCTGGTGG (double strand) [FAD3B T02 left site],activity,[1]; FAD3B off-target,8.81 % NHEJ
ACAAAATCATGGACAC (double strand) [FAD3A_T03 right],activity,[2]; [7],4.4 % NHEJ
TTTGCAGGAGAATTAT (double strand) [FAD3A_T03 left],activity,[3]; [7],4.4 % NHEJ
CCTCAATTCTTGTGCC (double strand) [FAD3B T02 right site],activity,[4]; FAD3B off-target,8.81 % NHEJ
TCATTCTTCACATTGT (double strand) [FAD3A_T01 left],activity,[5]; soybean protoplasts,10.2 % NHEJ
CTAAATAGCCTGGTGT (double strand) [FAD3A_T02 left],activity,[1]; soybean protoplasts,14.5 % NHEJ
ATGGTTCAAGCACAGCCTCTACAACATGTTGGTAATGGTGCAGGGAAAGAAGATCAAGCTTATTTTGATCCAAGTGCTCCACCACCCTTCAAGATTGCAAATATCAGAGCAGCAATTCCAAAACATTGCTGGGAGAAGAACACATTGAGATCTCTGAGTTATGTTCTGAGGGATGTGTTGGTAGTGACTGCATTGGTAGCTGCAGCAATCGGCTTCAATAGCTGGTTCTTCTGGCCACTCTATTGGCCTGCACAAGGCACAATGTTTTGGGCACTTTTTGTTCTTGGACATGATTGGTAACTAATTATTATTACAAATTGTTATGTTATGTTATGTTATGTTGTTGTGCCTTTTTCTCAGTGATGCTTTAGTCATTTCATTTCACTTGGTTATGCATGATTGTTCGTTCATATGTTCTGTCATGGTGAGTTCTAATTTGATTGATGCATGGAACAGTGGTCATGGAAGTTTTTCAAACAGTCCTTTGTTGAACAGCATTGTGGGCCACATCTTGCACTCTTCAATTCTTGTACCATACCATGGATGGTCGGTTCCTTTTAGCAACTTTTCATGTTCACTTTGTCCTTAAATTTTTTTTTATGTTTGTTAAAAAATCTTTGGTCTGATTTAACAACCTAACCATTTTTACAACTCATGGATTTTTTGCAGGAGAATTAGCCACAGGACTCACCATCAGAACCATGGCCATGTTGAGAAGGATGAATCATGGGTTCCG (double strand) [FAD3C gene],activity,[3]; FAD3C off-target,0.17 % NHEJ
same,activity,[2]; FAD3C off-target,0.17 % NHEJ
same,activity,[6]; FAD3C off-target,0.04 % NHEJ
same,activity,[1]; FAD3C off-target,0.01 % NHEJ
same,activity,[5]; FAD3C off-target,0.04 % NHEJ
same,activity,[4]; FAD3C off-target,0.01 % NHEJ
AGGAAGCTTTTCAGAC (double strand) [FAD3A_T01 right],activity,[6]; soybean protoplasts,10.2 % NHEJ
ACTCAATTCTTGTGCC (double strand) [FAD3A_T02 right],activity,[4]; soybean protoplasts,14.5 % NHEJ
ATGGTTAAAGACACAAAGCCTTTAGCCTATGCTGCCAATAATGGATACCAACAAAAGGGTTCTTCTTTTGATTTTGATCCTAGCGCTCCTCCACCGTTTAAGATTGCAGAAATCAGAGCTTCAATACCAAAACATTGCTGGGTCAAGAATCCATGGAGATCCCTCAGTTATGTTCTCAGGGATGTGCTTGTAATTGCTGCATTGGTGGCTGCAGCAATTCACTTCGACAACTGGCTTCTCTGGCTAATCTATTGCCCCATTCAAGGCACAATGTTCTGGGCTCTCTTTGTTCTTGGACATGATTGGTAATAATTTTTGTGTTTCTTACTCTTTTTTTTTTTTTTTTGTTTATGATATGAATCTCACACATTGTTCTGTTATGTCATTTCTTCTTCATTTGGCTTTAGACAACTTAAATTTGAGATCTTTATTATGTTTTTGCTTATATGGTAAAGTGATTCTTCATTATTTCATTCTTCATTGATTGAATTGAACAGTGGCCATGGAAGCTTTTCAGATAGCCCTTTGCTGAATAGCCTGGTGGGACACATCTTGCATTCCTCAATTCTTGTGCCATACCATGGATGGTTAGTTCATACTGGCTTTTTTGTTTGTTCATTTGTCATTGAAAAAAAATCTTTTGTTGATTCAATTATTTTTATAGTGTGTTTGGAAGCCCGTTTGAGAAAATAAGAAATCGCATCTGGAATGTGAAAGTTATAACTATTTAGCTTCATCTGTCGTTGCAAGTTCTTTTATTGGTTAAATTTTTATAGCGTGCTAGGAAACCCATTCGAGAAAATAAGAAATCACATCTGGAATGTGAAAGTTATAACTGTTAGCTTCTGAGTAAACGTGGAAAAACCACATTTTGGATTTGGAACCAAATTTTATTTGATAAATGACAACCAAATTGATTTTGATGGATTTTGCAGGAGAATTAGCCACAGAACTCACCATCAAAACCATGGACACATTGAGAAGGATGAGTCATGGGTTCCA (double strand) [FAD3B gene],activity,[3]; FAD3B off-target,2.39 % NHEJ
same,activity,[2]; FAD3B off-target,2.39 % NHEJ
same,activity,[6]; FAD3B off-target,1.48 % NHEJ
same,activity,[5]; FAD3B off-target,1.48 % NHEJ
